Measurements reported in the supplement of paper PMC11246515.
± gives the standard deviation of the averaged measurements.

Experiment: total protein half-life in vivo (active degradation + dilution); higher = more stable protein
[1] = E. coli NCM3722 delta-clpP delta-lon delta-hslV, growth: N-lim chemostat, doubling time 6 h
[2] = E. coli NCM3722 delta-clpP, growth: N-lim chemostat, doubling time 6 h
[3] = E. coli NCM3722 delta-hslV, growth: N-lim chemostat, doubling time 6 h
[4] = E. coli NCM3722 delta-smpB, growth: N-lim chemostat, doubling time 6 h
[5] = wild type E. coli NCM3722, growth: C-lim chemostat, doubling time 3 h
[6] = wild type E. coli NCM3722, growth: C-lim chemostat, doubling time 6 h
[7] = wild type E. coli NCM3722, growth: C-lim chemostat, doubling time 12 h
[8] = wild type E. coli NCM3722, growth: N-lim chemostat, doubling time 6 h
[9] = wild type E. coli NCM3722, growth: N-lim chemostat, doubling time 12 h
[10] = wild type E. coli NCM3722, growth: P-lim chemostat, doubling time 6 h
[11] = wild type E. coli NCM3722, growth: P-lim chemostat, doubling time 12 h
[12] = E. coli NCM3722 delta-lon, growth: N-lim chemostat, doubling time 6 h

Sequence	total protein half-life in vivo [1]	total protein half-life in vivo [2]	total protein half-life in vivo [3]	total protein half-life in vivo [4]	total protein half-life in vivo [5]	total protein half-life in vivo [6]	total protein half-life in vivo [7]	total protein half-life in vivo [8]	total protein half-life in vivo [9]	total protein half-life in vivo [10]	total protein half-life in vivo [11]	total protein half-life in vivo [12]
MSPTIYDIARVAGVSKSTVSRVLNKQTNISPEAREKVLRAIEELQYQPNKLARALTSSGFDAIMVISTRSTKTTAGNPFFSEVLHAITAKAEEEGFDVILQTSHNPAEDLQKCESKIKQKMIKGIIMLSSPADESFFAQLDKYDIPVVVIGKVEGQYAHVYSVDTDNFGDSIALTDALIESGHQNIACLHAPLDVHVSVDRVNGYKQSLAAHNIAVRDEWIVDGGYTHETALKAARQLLSQSPLPEAVFATDSLKLMSIYRAAAEKNIAIPQQLAVVGYSNETLSFILTPAPGGIDVPTQELGQQSCELLFRLISGKPSPQNITVATHMTLK	5.84 ± 0.79 h	4.18 ± 1.6 h	5.76 ± 0.6 h	4.86 ± 0.18 h	2.48 ± 0.17 h	5.41 ± 0.97 h	10.2 ± 2.9 h	5.34 ± 0.57 h	9.3 ± 0.42 h	5.06 ± 0.33 h	10.6 ± 2.2 h	
MRVSRSLTIKQMAMVAAVVLVFVFIFCTVLLFHLVQQNRYNTATQLESIARSVREPLSSAILKGDIPEAEAILASIKPAGVVSRADVVLPNQFQALRKSFIPERPVPVMVTRLFELPVQISLGVYSLERPANPQPIAYLVLQADSFRMYKFVMSTLSTLVTIYLLLSLILTVAISWCINRLILHPLRNIARELNAIPAKELVGHQLALPRLHQDDEIGMLVRSYNLNQQLLQRHYEEQNENAMRFPVSDLPNKALLMEMLEQVVARKQTTALMIITCETLRDTAGVLKEAQREILLLTLVEKLKSVLSPRMILAQISGYDFAVIANGVQEPWHAITLGQQVLTIMSERLPIERIQLRPHCSIGVAMFYGDLTAEQLYSRAISAAFTARHKGKNQIQFFDPQQMEAAQKRLTEESDILNALENHQFAIWLQPQVEMTSGKLVSAEVLLRIQQPDGSWDLPDGLIDRIECCGLMVTVGHWVLEESCRLLAAWQERGIMLPLSVNLSALQLMHPNMVADMLELLTRYRIQPGTLILEVTESRRIDDPHAAVAILRPLRNAGVRVALDDFGMGYAGLRQLQHMKSLPIDVLKIDKMFVEGLPGDSSMIAAIIMLAQSLNLQMIAEGVETEAQRDWLAKAGVGIAQGFLFARPLPIEIFEESYLEEK	6.54 ± 0.19 h	6.31 ± 0.11 h	6.2 ± 0.23 h	6.1 ± 0.082 h	2.998 ± 0.0049 h	5.7 ± 1.1 h	13 ± 0.22 h	6.054 ± 0.008 h	12.3 ± 0.63 h	6.161 ± 0.035 h	12.5 ± 0.55 h	5.77 ± 0.32 h
MQYWGKIIGVAVALLMGGGFWGVVLGLLIGHMFDKARSRKMAWFANQRERQALFFATTFEVMGHLTKSKGRVTEADIHIASQLMDRMNLHGASRTAAQNAFRVGKSDNYPLREKMRQFRSVCFGRFDLIRMFLEIQIQAAFADGSLHPNERAVLYVIAEELGISRAQFDQFLRMMQGGAQFGGGYQQQTGGGNWQQAQRGPTLEDACNVLGVKPTDDATTIKRAYRKLMSEHHPDKLVAKGLPPEMMEMAKQKAQEIQQAYELIKQQKGFK		6.42 ± 1.5 h		5.91 ± 0.58 h	2.98 ± 0.14 h	5.97 ± 0.2 h	11.2 ± 0.66 h	6.24 ± 0.77 h	11.8 ± 1 h	6.61 ± 0.12 h	12.7 ± 1 h	5.92 ± 0.42 h
MKQKVVSIGDINVANDLPFVLFGGMNVLESRDLAMRICEHYVTVTQKLGIPYVFKASFDKANRSSIHSYRGPGLEEGMKIFQELKQTFGVKIITDVHEPSQAQPVADVVDVIQLPAFLARQTDLVEAMAKTGAVINVKKPQFVSPGQMGNIVDKFKEGGNEKVILCDRGANFGYDNLVVDMLGFSIMKKVSGNSPVIFDVTHALQCRDPFGAASGGRRAQVAELARAGMAVGLAGLFIEAHPDPEHAKCDGPSALPLAKLEPFLKQMKAIDDLVKGFEELDTSK [P0A715]	6.1 ± 0.77 h	5.88 ± 1.5 h	5.22 ± 0.14 h	4.85 ± 0.15 h	3.15 ± 0.56 h	6.05 ± 0.51 h	10.3 ± 1.2 h	5.01 ± 0.13 h	9.03 ± 0.37 h	5.58 ± 0.48 h	12.9 ± 1.5 h	6.19 ± 0.93 h
MSELKISPELLQISPEVQDALKNKKPVVALESTIISHGMPFPQNAQTAIEVEETIRKQGAVPATIAIIGGVMKVGLSKEEIELLGREGHNVTKVSRRDLPFVVAAGKNGATTVASTMIIAALAGIKVFATGGIGGVHRGAEHTFDISADLQELANTNVTVVCAGAKSILDLGLTTEYLETFGVPLIGYQTKALPAFFCRTSPFDVSIRLDSASEIARAMVVKWQSGLNGGLVVANPIPEQFAMPEHTINAAIDQAVAEAEAQGVIGKESTPFLLARVAELTGGDSLKSNIQLVFNNAILASEIAKEYQRLAG				1.52 ± 0.068 h	2.56 ± 0.11 h	4.42 ± 0.53 h	6.33 ± 0.81 h				4.2 h	
MRLPIFLDTDPGIDDAVAIAAAIFAPELDLQLMTTVAGNVSVEKTTRNALQLLHFWNAEIPLAQGAAVPLVRAPRDAASVHGESGMAGYDFVEHNRKPLGIPAFLAIRDALMRAPEPVTLVAIGPLTNIALLLSQCPECKPYIRRLVIMGGSAGRGNCTPNAEFNIAADPEAAACVFRSGIEIVMCGLDVTNQAILTPDYLSTLPQLNRTGKMLHALFSHYRSGSMQSGLRMHDLCAIAWLVRPDLFTLKPCFVAVETQGEFTSGTTVVDIDGCLGKPANVQVALDLDVKGFQQWVAEVLALAS	4.86 ± 1.4 h	4.75 h		3.64 h	2.8 ± 0.15 h	5.62 ± 0.1 h	9.27 ± 3.1 h	3.89 h	11.1 h		8.95 ± 3.1 h	4.13 h
MTRLAEILDQMSAVLNDLKTVMDQEQQHLSMGQINGSQLQWITEQKSSLLATLDYLEQLRRKEPNTANSVDISQRWQEITVKTQQLRQMNQHNGWLLEGQIERNQQALEMLKPHQEPTLYGANGQTSTTHRGGKKISI					1.15 ± 0.27 h	4.91 h	3.28 h					
MMEILRGSPALSAFRINKLLARFQAARLPVHNIYAEYVHFADLNAPLNDDEHAQLERLLKYGPALASHAPQGKLLLVTPRPGTISPWSSKATDIAHNCGLQQVNRLERGVAYYIEAGTLTNEQWQQVTAELHDRMMETVFFALDDAEQLFAHHQPTPVTSVDLLGQGRQALIDANLRLGLALAEDEIDYLQDAFTKLGRNPNDIELYMFAQANSEHCRHKIFNADWVIDGEQQPKSLFKMIKNTFETTPDHVLSAYKDNAAVMEGSEVGRYFADHETGRYDFHQEPAHILMKVETHNHPTAISPWPGAATGSGGEIRDEGATGRGAKPKAGLVGFSVSNLRIPGFEQPWEEDFGKPERIVTALDIMTEGPLGGAAFNNEFGRPALNGYFRTYEEKVNSHNGEELRGYHKPIMLAGGIGNIRADHVQKGEINVGAKLVVLGGPAMNIGLGGGAASSMASGQSDADLDFASVQRDNPEMERRCQEVIDRCWQLGDANPILFIHDVGAGGLSNAMPELVSDGGRGGKFELREILSDEPGMSPLEIWCNESQERYVLAVAADQLPLFDELCKRERAPYAVIGEATEELHLSLHDRHFDNQPIDLPLDVLLGKTPKMTRDVQTLKAKGDALAREGITIADAVKRVLHLPTVAEKTFLVTIGDRSVTGMVARDQMVGPWQVPVANCAVTTASLDSYYGEAMAIGERAPVALLDFAASARLAVGEALTNIAATQIGDIKRIKLSANWMAAAGHPGEDAGLYEAVKAVGEELCPALGLTIPVGKDSMSMKTRWQEGNEEREMTSPLSLVISAFARVEDVRHTITPQLSTEDNALLLIDLGKGNNALGATALAQVYRQLGDKPADVRDVAQLKGFYDAIQALVAQRKLLAYHDRSDGGLLVTLAEMAFAGHCGIDADIATLGDDRLAALFNEELGAVIQVRAADREAVESVLAQHGLADCVHYVGQAVSGDRFVITANGQTVFSESRTTLRVWWAETTWQMQRLRDNPECADQEHQAKSNDADPGLNVKLSFDINEDVAAPYIATGARPKVAVLREQGVNSHVEMAAAFHRAGFDAIDVHMSDLLTGRTGLEDFHALVACGGFSYGDVLGAGEGWAKSILFNDRVRDEFATFFHRPQTLALGVCNGCQMMSNLRELIPGSELWPRFVRNTSDRFEARFSLVEVTQSPSLLLQGMVGSQMPIAVSHGEGRVEVRDAAHLAALESKGLVALRYVDNFGKVTETYPANPNGSPNGITAVTTESGRVTIMMPHPERVFRTVSNSWHPENWGEDGPWMRIFRNARKQLG	5.77 ± 0.51 h	4.8 ± 0.37 h	4.73 ± 0.32 h	4.63 ± 0.36 h	3.03 ± 0.051 h	5.98 ± 0.39 h	10.4 ± 0.62 h	4.72 ± 0.081 h	8.05 ± 0.21 h	6.31 ± 0.075 h	11.5 ± 0.43 h	5.07 ± 0.55 h
MVDTTQTTTEKKLTQSDIRGVFLRSNLFQGSWNFERMQALGFCFSMVPAIRRLYPENNEARKQAIRRHLEFFNTQPFVAAPILGVTLALEEQRANGAEIDDGAINGIKVGLMGPLAGVGDPIFWGTVRPVFAALGAGIAMSGSLLGPLLFFILFNLVRLATRYYGVAYGYSKGIDIVKDMGGGFLQKLTEGASILGLFVMGALVNKWTHVNIPLVVSRITDQTGKEHVTTVQTILDQLMPGLVPLLLTFACMWLLRKKVNPLWIIVGFFVIGIAGYACGLLGL	6.27 ± 0.37 h	6.2 ± 0.14 h	5.93 ± 0.077 h	6.28 ± 0.28 h	3.168 ± 0.014 h	6.21 ± 0.26 h	13.8 ± 2.9 h	6.51 ± 0.75 h	12.8 ± 1.1 h	6.24 ± 0.064 h	13.56 ± 0.072 h	6.13 ± 0.11 h
MNNKGSGLTPAQALDKLDALYEQSVVALRNAIGNYITSGELPDENARKQGLFVYPSLTVTWDGSTTNPPKTRAFGRFTHAGSYTTTITRPTLFRSYLNEQLTLLYQDYGAHISVQPSQHEIPYPYVIDGSELTLDRSMSAGLTRYFPTTELAQIGDETADGIYHPTEFSPLSHFDARRVDFSLARLRHYTGTPVEHFQPFVLFTNYTRYVDEFVRWGCSQILDPDSPYIALSCAGGNWITAETEAPEEAISDLAWKKHQMPAWHLITADGQGITLVNIGVGPSNAKTICDHLAVLRPDVWLMIGHCGGLRESQAIGDYVLAHAYLRDDHVLDAVLPPDIPIPSIAEVQRALYDATKLVSGRPGEEVKQRLRTGTVVTTDDRNWELRYSASALRFNLSRAVAIDMESATIAAQGYRFRVPYGTLLCVSDKPLHGEIKLPGQANRFYEGAISEHLQIGIRAIDLLRAEGDRLHSRKLRTFNEPPFR [P0AE12]	6.26 ± 1.5 h	5.49 ± 1 h	5.31 ± 0.55 h	4.37 ± 0.083 h	3.24 ± 0.42 h	6.34 ± 0.73 h	10.6 ± 0.36 h	4.51 ± 0.26 h	8.24 ± 1.3 h	6.19 ± 0.32 h		4.76 ± 0.66 h
MKAPGLPADQQFFADLFSGLVLNPQLLGRVWFASQPASLPVGSLCIDFPRLDIVLRGEYGNLLEAKQQRLVEGEMLFIPARAANLPVNNKPVMLLSLVFAPTWLGLSFYDSRTTSLLHPARQIQLPSLQRGEGEAMLTALTHLSRSPLEQNIIQPLVLSLLHLCRSVVNMPPGNSQPRGDFLYHSICNWVQDNYAQPLTRESVAQFFNITPNHLSKLFAQHGTMRFIEYVRWVRMAKARMILQKYHLSIHEVAQRCGFPDSDYFCRVFRRQFGLTPGEYSARFQG	5.03 h					1.83 h						
MSIIKEFREFAMRGNVVDLAVGVIIGAAFGKIVSSLVADIIMPPLGLLIGGIDFKQFAVTLRDAQGDIPAVVMHYGVFIQNVFDFLIVAFAIFMAIKLINKLNRKKEEPAAAPAPTKEEVLLTEIRDLLKEQNNRS [P0A742]	5.9 ± 0.17 h	5.99 ± 0.24 h	6.46 ± 0.16 h	6.222 ± 0.036 h	3.17 ± 0.14 h	6.12 ± 0.27 h	12.4 ± 1.9 h	6.41 ± 0.12 h	11.5 ± 2.5 h	5.8 ± 0.23 h	13.3 ± 1.1 h	5.9 ± 0.71 h
MKKVAAFVALSLLMAGCVSNDKIAVTPEQLQHHRFVLESVNGKPVTSDKNPPEISFGEKMMISGSMCNRFSGEGKLSNGELTAKGLAMTRMMCANPQLNELDNTISEMLKEGAQVDLTANQLTLATAKQTLTYKLADLMN	6.45 ± 1.1 h	6.13 ± 0.01 h	6.52 ± 1.3 h	6.01 ± 0.55 h	2.95 ± 0.68 h	5.47 ± 1.1 h	11 ± 0.29 h	6.111 ± 0.014 h	11.5 ± 1.1 h	6 ± 0.54 h	12.9 ± 0.28 h	
